Laboratory results reported in the Immune Epitope Database (IEDB).

What was measured:
Assay in all cases: IEDB peptide-MHC binding, purified MHC/competitive/radioactivity; ≥ and ≤ were set here for values at or beyond the usual limits of such assays
HLA-A*02:03 = target: HLA-A*02:03
HLA-A*02:06 = target: HLA-A*02:06
HLA-A*02:01 = target: HLA-A*02:01
HLA-A*02:02 = target: HLA-A*02:02
HLA-A*68:02 = target: HLA-A*68:02
[1] = source organism: Vaccinia virus WR
[2] = source organism: Hepacivirus hominis
[3] = source organism: Influenza A virus
[4] = source organism: Mammarenavirus guanaritoense
[5] = source organism: Mammarenavirus whitewaterense

| Sequence | IC50 (HLA-A*02:03; [1]) [nM] | IC50 (HLA-A*02:06; [1]) [nM] | IC50 (HLA-A*02:01; [1]) [nM] | IC50 (HLA-A*02:02; [1]) [nM] | IC50 (HLA-A*68:02; [1]) [nM] | other results |
| --- | --- | --- | --- | --- | --- | --- |
| VLWAHGFEL |  |  |  |  |  | IC50 (HLA-A*02:03; source organism: SARS-CoV1): 34 nM; IC50 (HLA-A*02:06; source organism: SARS-CoV1): 20 nM; IC50 (HLA-A*02:01; source organism: SARS-CoV1): 0.4 nM; IC50 (HLA-A*02:02; source organism: SARS-CoV1): 2.4 nM; IC50 (HLA-A*68:02; source organism: SARS-CoV1): 3890 nM |
| ALVSDCASTI | 52 | 240 | 72 | 94 | 530 |  |
| YVVVHGYFT |  |  |  |  |  | IC50 (HLA-A*02:03; source organism: SARS-CoV1): 792 nM; IC50 (HLA-A*02:06; source organism: SARS-CoV1): 171 nM; IC50 (HLA-A*02:01; source organism: SARS-CoV1): 1070 nM; IC50 (HLA-A*02:02; source organism: SARS-CoV1): 342 nM; IC50 (HLA-A*68:02; source organism: SARS-CoV1): 212 nM |
| LLAPITAYA |  |  |  |  |  | IC50 (HLA-A*02:03; [2]): 0.61 nM; IC50 (HLA-A*02:06; [2]): 5.3 nM; IC50 (HLA-A*02:01; [2]): 2.9 nM; IC50 (HLA-A*02:02; [2]): 0.27 nM; IC50 (HLA-A*68:02; [2]): 1.5 nM |
| LVASSGTLEFI |  |  |  |  |  | IC50 (HLA-A*02:03; [3]): 697 nM; IC50 (HLA-A*02:06; [3]): 305 nM; IC50 (HLA-A*02:01; [3]): 3730 nM; IC50 (HLA-A*02:02; [3]): 153 nM; IC50 (HLA-A*68:02; [3]): 199 nM |
| SMGNTLTCYV |  |  |  |  |  | IC50 (HLA-A*02:03; [2]): 39 nM; IC50 (HLA-A*02:06; [2]): 205 nM; IC50 (HLA-A*02:01; [2]): 100 nM; IC50 (HLA-A*02:02; [2]): 44 nM; IC50 (HLA-A*68:02; [2]): 2430 nM |
| FVVFLLVTL |  |  |  |  |  | IC50 (HLA-A*02:03; source organism: SARS-CoV1): 1640 nM; IC50 (HLA-A*02:06; source organism: SARS-CoV1): 38 nM; IC50 (HLA-A*02:01; source organism: SARS-CoV1): 839 nM; IC50 (HLA-A*02:02; source organism: SARS-CoV1): 217 nM; IC50 (HLA-A*68:02; source organism: SARS-CoV1): 120 nM |
| LVFLWLLWPV |  |  |  |  |  | IC50 (HLA-A*02:03; source organism: SARS-CoV1): 1.9 nM; IC50 (HLA-A*02:06; source organism: SARS-CoV1): 0.56 nM; IC50 (HLA-A*02:01; source organism: SARS-CoV1): 4.9 nM; IC50 (HLA-A*02:02; source organism: SARS-CoV1): 0.93 nM; IC50 (HLA-A*68:02; source organism: SARS-CoV1): 18 nM |
| MIHKTYIDV | 15 | 126 | 1920 | 1400 | 269 |  |
| EVERLMELPV | 1430 | 3630 | 1980 | 2460 | 1220 |  |
| SVMNFIPII | 6.3 | 2.8 | 1.7 | 13 | 58 |  |
| YQSFLFWFL | 2.5 | 40 | 0.76 | 0.38 | 87 |  |
| VLAGGVLAAV |  |  |  |  |  | IC50 (HLA-A*02:03; [2]): 6.7 nM; IC50 (HLA-A*02:06; [2]): 33 nM; IC50 (HLA-A*02:01; [2]): 7.8 nM; IC50 (HLA-A*02:02; [2]): 4.3 nM; IC50 (HLA-A*68:02; [2]): 59 nM |
| LLPLTSLVIT | 1320 | 1610 | 1170 | 999 | 1490 |  |
| YCNYTRFWYI |  |  |  |  |  | IC50 (HLA-A*02:03; [4]): 4340 nM; IC50 (HLA-A*02:06; [4]): 81 nM; IC50 (HLA-A*02:01; [4]): 322 nM; IC50 (HLA-A*02:02; [4]): 1060 nM; IC50 (HLA-A*68:02; [4]): 1340 nM |
| EMVEYLENQL | 209 | 420 | 485 | 212 | 1650 |  |
| LNASYITPYV |  |  |  |  |  | IC50 (HLA-A*02:03; [5]): 1070 nM; IC50 (HLA-A*02:06; [5]): 38 nM; IC50 (HLA-A*02:01; [5]): 87 nM; IC50 (HLA-A*02:02; [5]): 33 nM; IC50 (HLA-A*68:02; [5]): 13 nM |
| RAAIDRQVSV | 41 | 212 | 554 | 626 | 54 |  |
| LMGHFSWWTA |  |  |  |  |  | IC50 (HLA-A*02:03; source organism: SARS-CoV1): 135 nM; IC50 (HLA-A*02:06; source organism: SARS-CoV1): 97 nM; IC50 (HLA-A*02:01; source organism: SARS-CoV1): 18 nM; IC50 (HLA-A*02:02; source organism: SARS-CoV1): 19 nM; IC50 (HLA-A*68:02; source organism: SARS-CoV1): 82 nM |
| KIYTLIYRQL | 1030 | 912 | 4020 | 707 | 4670 |  |
| IMFMLIFNV | 10 | 13 | 12 | 0.15 | 13 |  |
| MLLTFLTSLL |  |  |  |  |  | IC50 (HLA-A*02:03; source organism: SARS-CoV1): 7.3 nM; IC50 (HLA-A*02:06; source organism: SARS-CoV1): 25 nM; IC50 (HLA-A*02:01; source organism: SARS-CoV1): 11 nM; IC50 (HLA-A*02:02; source organism: SARS-CoV1): 0.73 nM; IC50 (HLA-A*68:02; source organism: SARS-CoV1): 299 nM |
| FTEGKINPLL | 595 | 86 | 162 | 150 | 243 |  |
| STYPGNTFV | 0.19 | 0.46 | 64 | 11 | 0.24 |  |
| NTIAVITETI | 56 | 784 | 108 | 50 | 2.1 |  |
| IVNTTYDFL | 4680 | 2990 | 1050 | 1880 | 750 |  |
| NMINKLYGYA | 0.44 | 137 | 88 | 1.6 | 292 |  |

| Sequence | IC50 (HLA-A*02:03; [1]) [nM] | IC50 (HLA-A*02:06; [1]) [nM] | IC50 (HLA-A*02:01; [1]) [nM] | IC50 (HLA-A*02:02; [1]) [nM] | IC50 (HLA-A*68:02; [1]) [nM] | other results |
| --- | --- | --- | --- | --- | --- | --- |
| LVIGVAFLAV |  |  |  |  |  | IC50 (HLA-A*02:03; source organism: SARS-CoV1): 22 nM; IC50 (HLA-A*02:06; source organism: SARS-CoV1): 2.6 nM; IC50 (HLA-A*02:01; source organism: SARS-CoV1): 342 nM; IC50 (HLA-A*02:02; source organism: SARS-CoV1): 2710 nM; IC50 (HLA-A*68:02; source organism: SARS-CoV1): 62 nM |
| FVDTMSIYIA | 2390 | 1100 | 1630 | 154 | 229 |  |
| MILMTHFFSI |  |  |  |  |  | IC50 (HLA-A*02:03; [2]): 1120 nM; IC50 (HLA-A*02:06; [2]): 307 nM; IC50 (HLA-A*02:01; [2]): 268 nM; IC50 (HLA-A*02:02; [2]): 420 nM; IC50 (HLA-A*68:02; [2]): 883 nM |
| ILATLNTLIT | 12 | 629 | 443 | 7 | 1860 |  |
| FMRFFTLGSI |  |  |  |  |  | IC50 (HLA-A*02:03; source organism: SARS-CoV1): 0.76 nM; IC50 (HLA-A*02:06; source organism: SARS-CoV1): 195 nM; IC50 (HLA-A*02:01; source organism: SARS-CoV1): 105 nM; IC50 (HLA-A*02:02; source organism: SARS-CoV1): 24 nM; IC50 (HLA-A*68:02; source organism: SARS-CoV1): 412 nM |
| HVLLPFYETL | 213 | 115 | 17 | 29 | 2270 |  |
| RVSENTGMGM | 89 | 146 | 766 | 839 | 66 |  |
| YIFFASFYYI |  |  |  |  |  | IC50 (HLA-A*02:03; source organism: SARS-CoV1): 60 nM; IC50 (HLA-A*02:06; source organism: SARS-CoV1): 0.8 nM; IC50 (HLA-A*02:01; source organism: SARS-CoV1): 15 nM; IC50 (HLA-A*02:02; source organism: SARS-CoV1): 0.46 nM; IC50 (HLA-A*68:02; source organism: SARS-CoV1): 2.2 nM |
| MICCDSRIVV | 392 | 52 | 25 | 665 | 27 |  |
| WLKDSAIMV | 28 | 2280 | 326 | 191 | 1010 |  |
| ATFRDMLLNV | 0.4 | 3 | 8.3 | 7.1 | 511 |  |
| FTNSQIFNI | 7.1 | 4.8 | 9 | 6.9 | 0.23 |  |
| FVTDYVHEGV | 1.7 | 11 | 48 | 24 | 1.6 |  |
| ITMTTVYHI |  |  |  |  |  | IC50 (HLA-A*02:03; source organism: SARS-CoV1): 7.2 nM; IC50 (HLA-A*02:06; source organism: SARS-CoV1): 2.3 nM; IC50 (HLA-A*02:01; source organism: SARS-CoV1): 8.2 nM; IC50 (HLA-A*02:02; source organism: SARS-CoV1): 19 nM; IC50 (HLA-A*68:02; source organism: SARS-CoV1): 6.1 nM |
| TINVNSLAL | 1540 | 2180 | 1530 | 1980 | 1530 |  |
| IISYIILFIL | 489 | 3930 | 580 | 66 | 2090 |  |
| LIQDWIPPL |  |  |  |  |  | IC50 (HLA-A*02:03; [2]): 177 nM; IC50 (HLA-A*02:06; [2]): 54 nM; IC50 (HLA-A*02:01; [2]): 97 nM; IC50 (HLA-A*02:02; [2]): 110 nM; IC50 (HLA-A*68:02; [2]): 1420 nM |
| LIVMLLFAGV |  |  |  |  |  | IC50 (HLA-A*02:03; [2]): 358 nM; IC50 (HLA-A*02:06; [2]): 169 nM; IC50 (HLA-A*02:01; [2]): 1470 nM; IC50 (HLA-A*02:02; [2]): 3390 nM; IC50 (HLA-A*68:02; [2]): 4290 nM |
| SISGVLWTV |  |  |  |  |  | IC50 (HLA-A*02:03; [2]): 18 nM; IC50 (HLA-A*02:06; [2]): 53 nM; IC50 (HLA-A*02:01; [2]): 11 nM; IC50 (HLA-A*02:02; [2]): 8.8 nM; IC50 (HLA-A*68:02; [2]): 5.5 nM |
| RAFIYSIMET | 70 | 578 | 659 | 81 | 852 |  |
| SMSQELAELL | 55 | 474 | 32 | 6.2 | 1300 |  |
| KVIKLVKSL | 43 | 260 | 395 | 578 | 366 |  |
| CVSNLDISSV | 2.3 | 48 | 1480 | 52 | 1030 |  |
| SVIFYFISI | 75 | 0.17 | 79 | 155 | 1.7 |  |
| TLNTLITLI | 0.6 | 941 | 51 | 0.99 | 472 |  |
| VIIMAINVFT | 820 | 674 | 641 | 320 | 740 |  |
